Patent US12606635B2, “Glypican-2-binding moieties, chimeric antigen receptors and uses thereof” (Nanjing Legend Biotech Co., Ltd., priority 2020, dated 2026)

B1: CAS71529VH6-AS70950VH6-BBz: bivalent tandem anti-GPC2 CAR (4-1BB, CD3ζ), SEQ ID NO: 242; tested as CAR T cells (protein)
chain: MALPVTALLLPLALLLHAARPEVQLVESGGGLVQPGGSLRLSCAVSEYRYSSRYCMGWFRQAPGKGREGVAAIDSNGSADYVDSVKGRFTISKDNSKNTLYLQMNSLRAEDTAMYYCAADHLAYDCYSGATSVFRYWGQGTLVTVSSGGGGSGGGGSGGGGSEVQLVESGGGLVQPGGSLRLSCAISEFTYKNTCVGWFRQAPGKGREGVAAIDSDGNTNYVDSVKGRFTISQDNSKNTVYLQMNSLRAEDTAMYYCAAGAYCGRLLLWIGNYAYWGQGTLVTVSSTTTPAPRPPTPAPTIASQPLSLRPEACRPAAGGAVHTRGLDFACDIYIWAPLAGTCGVLLLSLVITLYCKRGRKKLLYIFKQPFMRPVQTTQEEDGCSCRFPEEEEGGCELRVKFSRSADAPAYKQGQNQLYNELNLGRREEYDVLDKRRGRDPEMGGKPRRKNPQEGLYNELQKDKMAEAYSEIGMKGERRRGKGHDGLYQGLSTATKDTYDALHMQALPPR
modifications: expressed in CAR T cells; CAS71529VH6-AS70950VH6-BBz
B2: CAS79236VH6-BBz: humanized VHH anti-GPC2 CAR (4-1BB, CD3ζ), SEQ ID NO: 233; tested as CAR T cells (protein)
chain: MALPVTALLLPLALLLHAARPEVQLVESGGGLVQPGGSLRLSCAVSGYTYSSYCMAWFRQAPGKGLEGVASIDAGGRTTYVDSVKGRFTISKDNAKNSLYLQMNSLRAEDTAMYYCAVDVRTRCGGTWDGEAVYFPYWGQGTLVTVSSTTTPAPRPPTPAPTIASQPLSLRPEACRPAAGGAVHTRGLDFACDIYIWAPLAGTCGVLLLSLVITLYCKRGRKKLLYIFKQPFMRPVQTTQEEDGCSCRFPEEEEGGCELRVKFSRSADAPAYKQGQNQLYNELNLGRREEYDVLDKRRGRDPEMGGKPRRKNPQEGLYNELQKDKMAEAYSEIGMKGERRRGKGHDGLYQGLSTATKDTYDALHMQALPPR
modifications: expressed in CAR T cells; CAS79236VH6-BBz
B3: CAS72669VH6-BBz: humanized VHH anti-GPC2 CAR (4-1BB, CD3ζ), SEQ ID NO: 226; tested as CAR T cells (protein)
chain: MALPVTALLLPLALLLHAARPQVQLVESGGGVVQPGGSLRLSCAASRFTYSSYCMGWIRQAPGKGREGVAIFYTGGGRTYYADSVKGRFTISQDNSKNTLYLQMNSLRAEDTAVYYCVAGFYCSGGYWEGDFGYWGQGTLVTVSSTTTPAPRPPTPAPTIASQPLSLRPEACRPAAGGAVHTRGLDFACDIYIWAPLAGTCGVLLLSLVITLYCKRGRKKLLYIFKQPFMRPVQTTQEEDGCSCRFPEEEEGGCELRVKFSRSADAPAYKQGQNQLYNELNLGRREEYDVLDKRRGRDPEMGGKPRRKNPQEGLYNELQKDKMAEAYSEIGMKGERRRGKGHDGLYQGLSTATKDTYDALHMQALPPR
modifications: expressed in CAR T cells; CAS72669VH6-BBz
B4: CAS78117VH4-BBz: humanized VHH anti-GPC2 CAR (4-1BB, CD3ζ), SEQ ID NO: 227; tested as CAR T cells (protein)
chain: MALPVTALLLPLALLLHAARPEVQLVESGGGLVQPGGSLRLSCIVSRYTYATYSMAWFRQAPGKGLEGVSGLDSVGATGYAESVKGRFTISRDNSKNTLYLQMNSLRAEDTAVYYCVVDPASAKVTYGSWSTPSYAYWGQGTLVTVSSTTTPAPRPPTPAPTIASQPLSLRPEACRPAAGGAVHTRGLDFACDIYIWAPLAGTCGVLLLSLVITLYCKRGRKKLLYIFKQPFMRPVQTTQEEDGCSCRFPEEEEGGCELRVKFSRSADAPAYKQGQNQLYNELNLGRREEYDVLDKRRGRDPEMGGKPRRKNPQEGLYNELQKDKMAEAYSEIGMKGERRRGKGHDGLYQGLSTATKDTYDALHMQALPPR
modifications: expressed in CAR T cells; CAS78117VH4-BBz
B5: CAS72052VH5-AS71529VH5-BBz: bivalent tandem anti-GPC2 CAR (4-1BB, CD3ζ), SEQ ID NO: 240; tested as CAR T cells (protein)
chain: MALPVTALLLPLALLLHAARPQVQLVESGGGVVQPGGSLRLSCAVSGFRYASYCMGWFRQAPGKGLEGVAAIHSDGIIRYAESVKGRFTISKDNSKNTLYLQMNSLRAEDTAVYYCAAGAYCGADAILTLYDYAFWGQGTLVTVSSGGGGSGGGGSGGGGSEVQLVESGGGLVQPGGSLRLSCAVSEYRYSSRYCMGWFRQAPGKGLEGVSAIDSNGSADYVDSVKGRFTISKDNSKNTLYLQMNSLRAEDTAVYYCAADHLAYDCYSGATSVFRYWGQGTLVTVSSTTTPAPRPPTPAPTIASQPLSLRPEACRPAAGGAVHTRGLDFACDIYIWAPLAGTCGVLLLSLVITLYCKRGRKKLLYIFKQPFMRPVQTTQEEDGCSCRFPEEEEGGCELRVKFSRSADAPAYKQGQNQLYNELNLGRREEYDVLDKRRGRDPEMGGKPRRKNPQEGLYNELQKDKMAEAYSEIGMKGERRRGKGHDGLYQGLSTATKDTYDALHMQALPPR
modifications: expressed in CAR T cells; CAS72052VH5-AS71529VH5-BBz

Key:
[1] = system: IMR-32; test: IFNγ release in co-culture with IMR-32; format: cell-based, human; conditions: Example 7, co-culture with IMR-32, FIG. 8D-8F
From the text: (§1) In addition to the cytotoxicity data above, supernatants from the in vitro co-culture assays were also collected to assess CAR T cells-induced cytokine release, e.g., release of interferon gamma (i.e., IFNγ), as another indicator of cytotoxicity, was quantified using a HTRF human IFNγ AlphaLISA kit (Perkin Elmer, #62HIFNGPEH) per manufacturer's instruction. […] No significant cytokine release were detected against GPC2-negative cell line A-431.
(§2) Supernatants from the in vitro co-culture assays were collected to assess CAR T cells-induced cytokine release, e.g., interferon gamma (i.e., IFNγ) release as described in Example 6. […] IFNγ was not induced in GPC2-negative A-431 cells. […] Cytokine release data was consistent with the in vitro cytotoxicity data.

[2] = system: SH-SY5Y; test: IFNγ release in co-culture with SH-SY5Y; format: cell-based, human; conditions: Example 7, co-culture with SH-SY5Y, FIG. 8D-8F
From the text: as §1, §2

[3] = system: human neuroblastoma cell line IMR-32; test: In vitro cytotoxicity assay (LDH), IMR-32; format: cell-based; conditions: co-cultured with IMR-32, FIG. 8C
Description: (§3) The pre-activated T cells were transduced with lentivirus stock in the presence of […] polybrene and 300 IU/mL IL-2. T cells and lentivirus were centrifuged at 1000 g, 32° C. for 1 h and placed in humidified cell culture incubator for transgene expression under suitable conditions. On day 5 or day 7 or day 10 post-transduction, transduced T cells were harvested and co-incubated with tumor cells at an effector (CAR T) to target cell ratio of 10:1 or 5:1 or 2:1 or 1:1 or 0.2:1 for 20 hours. Target cells were human neuroblastoma cell line SH-SY5Y (ATCC, #CRL-2266), human neuroblastoma cell line IMR-32 cells (ATCC, #CCL-127), or human epidermoid carcinoma cell line A-431 (ATCC, #CRL-1555). To assay the cytotoxicity of CAR T cells on tumor cells, the Cytotoxicity Detection Kit (LDH) (Roche, #11644793001) assay reagents were prepared according to manufacturer's protocol. Reaction mix was added to the cell-free supernatant of each sample to detect the LDH released from cells. Optical densities at OD492 nm and OD650 nm were measured by PHERStar Microplate Reader. Baseline LDH released from the target cell in the absence of effector cells and effector cell in the absence of target cells were subtracted from the total LDH amount. The target maximum release was obtained by adding Triton-X100 at a final concentration of 1% to target cells in the absence of effector cells at the time when the cytotoxicity assays initiated. […] The specific cytotoxicity was calculated by the formula: % Target cell lysis=100*[(OD CAR T cell+Target cell)−(OD CAR T cell)−(OD Target cell)+(OD Buffer background)]/(OD Target Maximum release−OD Target Minimum release).
(§4) On day 5 or day 8 or day 10 post-transduction, transduced T cells were harvested and co-incubated with tumor cells at an effector (CAR T) to target cell ratio of 10:1 or 1:1 or 0.2:1 for 20 hours. To assay the cytotoxicity of CAR T cells on tumor cells, the Cytotoxicity Detection Kit (LDH) (Roche, #11644793001) was added to the culture supernatant and the specific cytotoxicity for each CAR T cell construct was measured as described in Example 6.

[4] = system: human neuroblastoma cell line SH-SY5Y; test: In vitro cytotoxicity assay (LDH), SH-SY5Y; format: cell-based; conditions: SH-SY5Y, effector to target ratio 10:1, 20 hours, FIG. 8A
Description: The pre-activated T cells were transduced with lentivirus stock in the presence of […] polybrene and 300 IU/mL IL-2. T cells and lentivirus were centrifuged at 1000 g, 32° C. for 1 h and placed in humidified cell culture incubator for transgene expression under suitable conditions. On day 5 or day 7 or day 10 post-transduction, transduced T cells were harvested and co-incubated with tumor cells at an effector (CAR T) to target cell ratio of 10:1 or 5:1 or 2:1 or 1:1 or 0.2:1 for 20 hours. Target cells were human neuroblastoma cell line SH-SY5Y (ATCC, #CRL-2266), human neuroblastoma cell line IMR-32 cells (ATCC, #CCL-127), or human epidermoid carcinoma cell line A-431 (ATCC, #CRL-1555). To assay the cytotoxicity of CAR T cells on tumor cells, the Cytotoxicity Detection Kit (LDH) (Roche, #11644793001) assay reagents were prepared according to manufacturer's protocol. Reaction mix was added to the cell-free supernatant of each sample to detect the LDH released from cells. Optical densities at OD492 nm and OD650 nm were measured by PHERStar Microplate Reader. Baseline LDH released from the target cell in the absence of effector cells and effector cell in the absence of target cells were subtracted from the total LDH amount. The target maximum release was obtained by adding Triton-X100 at a final concentration of 1% to target cells in the absence of effector cells at the time when the cytotoxicity assays initiated. Supernatant from target cells in the absence of effector cells was used for target minimum release. The specific cytotoxicity was calculated by the formula: % Target cell lysis=100*[(OD CAR T cell+Target cell)−(OD CAR T cell)−(OD Target cell)+(OD Buffer background)]/(OD Target Maximum release−OD Target Minimum release).
as §4

[5] = system: GPC2 negative human epidermoid carcinoma cell line A-431; test: In vitro cytotoxicity assay (LDH), A-431; format: cell-based; conditions: FIG. 7G
Description: as §3, §4

[6] = system: neuroblastoma SH-SY5Y xenograft; format: in vivo, NCG mice
Description: A single dose of untransduced T cells (10×10^6) or CAR T cells (5×10^6) was administered intravenously to tumor engrafted mice 9 days after tumor inoculation (FIG. 9A). […] At the end of obversion, 100% of monovalent CAR T cells (CAS70950VH6-BBz, CAS72669VH6-BBz) and 80% of multi-valent CAR T cells (CAS70950VH6-AS71529VH6-BBz) treated mice were alive (FIG. 9A). At day 42 post treatment, 2/5 mice (40%) treated with CAS72669VH6-BBz expressing CAR T cells were tumor-free and 3/5 mice (60%) treated with CAS70950VH6-AS71529VH6-BBz expressing CAR T cells were tumor-free without recurrence. […] The data highlighted the superiority of VHH-based CAR T cells in tumor regression and protection of mice from disease progression.
Moreover, the expansion and persistence of CAR T cells in vivo are also considered as critical predictors of durable clinical tumor regression in patients with cancer. […] Average 5.00±6.42% of CAR T cells were found in the peripheral blood of NCG mice treated with 5×10^6 CAS70950VH6-AS71529VH6-BBz CAR T cells, whereas less than 1% CAR T cells were detected in CAS70950VH6-BBz, CAS72669VH6-BBz and CAS71529VH6-BBz expressing CAR T groups. Expansion of CAR T cells in the CAS70950VH6-AS71529VH6-BBz group was inversely correlated with tumor size over time.

[7] = 5×10^6 CAR T cells i.v., FIG. 9A

Molecule | IFNγ release [1] | IFNγ release [2] | cytolytic activity compared with monovalent CAR T cells [3] | specific percentage lysis [4] | cytotoxicity against GPC2 negative A-431 [5] | also measured
B1 | high levels of IFNγ | high levels of IFNγ | equivalent or better cytolytic activity | 70.33±4.93% | – | –
B2 | – | – | – | – | no cytotoxicity | –
B3 | – | – | – | – | no cytotoxicity | treated mice alive at the end of observation [6, 7]: 100%; tumor regression compared with CAS71529VH6-BBz [6, 7]: more pronounced; tumor-free mice (number of mice) ([6]; day 42 post treatment): 2/5; tumor-free mice (percent) ([6]; day 42 post treatment): 40%; tumor burden compared with untransduced T cell-treated group ([6]; fourteen days after treatment, 5×10^6 CAR T cells i.v., FIG. 9A): reduced tumor burden; percentage of CAR T cells in peripheral blood ([6]; mouse, in vivo): less than 1%
B4 | – | – | – | – | no cytotoxicity | –
B5 | high levels of IFNγ | high levels of IFNγ | equivalent or better cytolytic activity | 83.00±4.58% | – | –
